Experiment [1] addresses T1, rHuman ErbB2/Fc Chimera, CF (R&D Systems Cat#1129-ER) (human, UniProt P04626 23-652).
T1 construct: Bought recombinant protein; not shown: Fc of the bought chimera
Briefly: MSD ECL multispot assay, antigen spotted on plate, Fab in solution; blank spot of this row 282.

The target in experiment [2] is T2, rHuman HGF R/c-MET/Fc Chimera, CF (R&D Systems Cat#358-MT/CF) (human, UniProt P08581 25-932).
T2 construct: Bought recombinant protein; also called HGF R/Fc; not shown: Fc of the bought chimera
T2 sequence (P08581 25-932, change not shown): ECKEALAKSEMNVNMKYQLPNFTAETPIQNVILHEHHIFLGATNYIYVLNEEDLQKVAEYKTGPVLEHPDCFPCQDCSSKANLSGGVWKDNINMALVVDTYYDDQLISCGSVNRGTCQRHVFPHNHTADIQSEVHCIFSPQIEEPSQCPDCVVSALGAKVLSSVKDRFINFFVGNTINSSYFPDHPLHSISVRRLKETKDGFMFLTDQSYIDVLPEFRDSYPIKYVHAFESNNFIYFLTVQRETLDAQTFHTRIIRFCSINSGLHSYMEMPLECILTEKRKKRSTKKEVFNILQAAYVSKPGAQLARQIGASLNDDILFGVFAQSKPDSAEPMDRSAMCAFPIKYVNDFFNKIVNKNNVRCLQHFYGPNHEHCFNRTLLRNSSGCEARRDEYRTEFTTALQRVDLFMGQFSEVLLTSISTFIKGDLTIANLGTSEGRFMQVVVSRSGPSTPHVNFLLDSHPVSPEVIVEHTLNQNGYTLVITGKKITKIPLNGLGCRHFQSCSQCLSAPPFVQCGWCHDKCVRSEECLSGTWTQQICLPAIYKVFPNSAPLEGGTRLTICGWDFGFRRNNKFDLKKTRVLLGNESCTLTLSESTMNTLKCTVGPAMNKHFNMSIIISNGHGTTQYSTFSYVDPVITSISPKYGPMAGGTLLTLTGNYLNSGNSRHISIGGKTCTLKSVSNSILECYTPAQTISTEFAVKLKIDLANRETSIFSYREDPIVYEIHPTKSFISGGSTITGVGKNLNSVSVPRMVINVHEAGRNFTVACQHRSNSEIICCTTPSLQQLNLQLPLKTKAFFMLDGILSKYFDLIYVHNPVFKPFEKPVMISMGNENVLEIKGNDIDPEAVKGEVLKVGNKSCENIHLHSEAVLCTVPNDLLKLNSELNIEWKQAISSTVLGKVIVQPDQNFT
The description is as above.

Experiment [3] has as its target T3, rHuman IGF-1 sR (insulin-like growth factor-1 soluble receptor), CF (R&D Systems Cat#391-GR) (human, UniProt P08069 31-932).
T3 construct: Bought recombinant soluble receptor
Described as above.

Experiment [4] deals with T4, Recombinant Human DLL4 (R&D Systems Cat#1506-D4/CF) (human, UniProt Q9NR61 27-524).
T4 construct: Bought recombinant protein; also called delta-like protein 4; rHuman DLL4
The experiment is described as above.

Experiment [5] addresses T5, rHuman EGF R/Fc Chimera, CF (R&D Systems Cat#344-ER) (human, UniProt P00533 25-645).
T5 construct: Bought recombinant protein; not shown: Fc of the bought chimera
The description is as above.

The target of experiment [6] is T6, rHuman P-Cadherin/Fc Chimera, CF (R&D Systems Cat#861-PC) (human, UniProt P22223 108-654).
T6 construct: Bought recombinant protein; not shown: Fc of the bought chimera
The experiment is described as above.

Experiment [7] deals with T1, rHuman ErbB2/Fc Chimera, CF (R&D …). The experiment is described as follows: MSD ECL multispot assay, antigen spotted on plate, Fab in solution; blank spot of this row 277.
The target of experiment [8] is T2, rHuman HGF R/c-MET/Fc Chimera, CF (R&D …). The experiment is described as above.
Experiment [9] addresses T3, rHuman IGF-1 sR (insulin-like growth …). Described as above.
In experiment [10] the target is T4, Recombinant Human DLL4 (R&D Systems …). The experiment is described as above.
Experiment [11] addresses T5, rHuman EGF R/Fc Chimera, CF (R&D …). The experiment is described as above.
Experiment [12] concerns the target T6, rHuman P-Cadherin/Fc Chimera, CF (R&D …). Described as above.
In experiment [13] the target is T1, rHuman ErbB2/Fc Chimera, CF (R&D …). Briefly: MSD ECL multispot assay, antigen spotted on plate, Fab in solution; blank spot of this row 274.
Experiment [14] addresses T2, rHuman HGF R/c-MET/Fc Chimera, CF (R&D …). Described as above.
Experiment [15] concerns the target T3, rHuman IGF-1 sR (insulin-like growth …). Described as above.
Experiment [16] addresses T4, Recombinant Human DLL4 (R&D Systems …). The experiment is described as above.
The target of experiment [17] is T5, rHuman EGF R/Fc Chimera, CF (R&D …). Described as above.
Experiment [18] has as its target T6, rHuman P-Cadherin/Fc Chimera, CF (R&D …). Described as above.
Experiment [19] has as its target T1, rHuman ErbB2/Fc Chimera, CF (R&D …). The experiment is described as follows: MSD ECL multispot assay, antigen spotted on plate, Fab in solution; blank spot of this row 255.
The target of experiment [20] is T2, rHuman HGF R/c-MET/Fc Chimera, CF (R&D …). The description is as above.
Experiment [21] addresses T3, rHuman IGF-1 sR (insulin-like growth …). The experiment is described as above.
Experiment [22] concerns the target T7, rHuman Erythropoietin R/Fc Chimera, CF (R&D Systems Cat#963-ER) (human, UniProt P19235 25-250).
T7 construct: Bought recombinant protein; also called EPO R; EPO R/Fc; not shown: Fc of the bought chimera
T7 sequence (looked up): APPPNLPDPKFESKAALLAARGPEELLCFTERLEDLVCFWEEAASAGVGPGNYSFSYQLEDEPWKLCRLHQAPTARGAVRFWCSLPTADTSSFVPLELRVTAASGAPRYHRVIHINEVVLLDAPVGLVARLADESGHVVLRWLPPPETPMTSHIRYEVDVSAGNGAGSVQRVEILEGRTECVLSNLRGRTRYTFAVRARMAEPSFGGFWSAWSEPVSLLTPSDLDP
Described as above.

Experiment [23] addresses T8, rHuman Notch-1/Fc Chimera, CF (R&D Systems Cat#3647-TK) (human, UniProt P46531 19-526).
T8 construct: Bought recombinant protein; not shown: Fc of the bought chimera
The description is as above.

Experiment [24] concerns the target T9, rHuman CD44/Fc Chimera, CF (R&D Systems Cat#3660-CD) (human, UniProt P16070 21-220).
T9 construct: Bought recombinant protein; not shown: Fc of the bought chimera
Described as above.

In experiment [25] the target is T5, rHuman EGF R/Fc Chimera, CF (R&D …). The description is as above.
The target in experiment [26] is T6, rHuman P-Cadherin/Fc Chimera, CF (R&D …). The experiment is described as above.
The target in experiment [27] is T1, rHuman ErbB2/Fc Chimera, CF (R&D …). The experiment is described as follows: MSD ECL multispot assay, antigen spotted on plate, Fab in solution; blank spot of this row 317.
The target in experiment [28] is T2, rHuman HGF R/c-MET/Fc Chimera, CF (R&D …). The experiment is described as above.
In experiment [29] the target is T3, rHuman IGF-1 sR (insulin-like growth …). Described as above.
The target in experiment [30] is T7, rHuman Erythropoietin R/Fc Chimera, CF …. The experiment is described as above.
Experiment [31] addresses T8, rHuman Notch-1/Fc Chimera, CF (R&D …). Described as above.
The target in experiment [32] is T9, rHuman CD44/Fc Chimera, CF (R&D Systems …). Described as above.
Experiment [33] deals with T5, rHuman EGF R/Fc Chimera, CF (R&D …). The description is as above.
The target of experiment [34] is T6, rHuman P-Cadherin/Fc Chimera, CF (R&D …). The experiment is described as above.

This passage reports ECL signal results from US20120316071A1 (published 2012).

B1: Fab VH1-46_IGHD6-6*01_IGHJ1*01 S102A/S103P/S104F/H111F (APFF) & L6_IGKJ1*01 (Fab, V domains shown)
VH: QVQLVQSGAEVKKPGASVKVSCKASGYTFTSYYMHWVRQAPGQGLEWMGIINPSGGSTSYAQKFQGRVTMTRDTSTSTVYMELSSLRSEDTAVYYCAREEYAPFSAEYFQFWGQGTLVTVSS
VL: not shown
notes: Fab; also called APFF / parent; H:APFF & L:wt
On to B1, for which the ECL signal was determined as 259 in [1]; 321 in experiment [2]; 249 in experiment [3]; 165000 in experiment [4]; 290 in [5]; 302 in experiment [6]. Moreover, the ECL signal came to 311 in [7]; 267 in [8]; 221 in experiment [9]; 165000 in experiment [10]; 307 in experiment [11]; 299 in experiment [12]. In addition, the ECL signal was found to be 236 in experiment [13]; 339 in experiment [14]; 305 in experiment [15]; 164000 in experiment [16]; 266 in [17]; 283 in experiment [18].

B2: Fab VH1-46_IGHD6-6*01_IGHJ1*01 S102A/S103P/S104F/H111F (APFF) & L6_IGKJ1*01 S92Q (Fab, V domains shown)
VH: QVQLVQSGAEVKKPGASVKVSCKASGYTFTSYYMHWVRQAPGQGLEWMGIINPSGGSTSYAQKFQGRVTMTRDTSTSTVYMELSSLRSEDTAVYYCAREEYAPFSAEYFQFWGQGTLVTVSS
VL: EIVLTQSPATLSLSPGERATLSCRASQSVSSYLAWYQQKPGQAPRLLIYDASNRATGIPARFSGSGSGTDFTLTISSLEPEDFAVYYCQQRQNWPPWTFGQGTKVEIKR
notes: Fab; also called APFF / S92Q
B2: the ECL signal in experiment [19] amounted to 282; in experiment [20] it was 373; in experiment [21] it was 246; in experiment [22], 330; in experiment [23] it was 351; in experiment [24] it was 312. Also, the ECL signal in experiment [25] came out at 332; in [26], 340.

B3: Fab VH1-46_IGHD6-6*01_IGHJ1*01 S102A/S103P/S104F/H111F (APFF) & L6_IGKJ1*01 S92V (Fab, V domains shown)
VH: QVQLVQSGAEVKKPGASVKVSCKASGYTFTSYYMHWVRQAPGQGLEWMGIINPSGGSTSYAQKFQGRVTMTRDTSTSTVYMELSSLRSEDTAVYYCAREEYAPFSAEYFQFWGQGTLVTVSS
VL: EIVLTQSPATLSLSPGERATLSCRASQSVSSYLAWYQQKPGQAPRLLIYDASNRATGIPARFSGSGSGTDFTLTISSLEPEDFAVYYCQQRVNWPPWTFGQGTKVEIKR
notes: Fab; also called APFF / S92V
For the molecule B3, the ECL signal in experiment [27] is 188; in experiment [28] it was 230; in [29], 244; in experiment [30], 371; in [31], 262; in experiment [32], 248. Further, the ECL signal was 319 in experiment [33] and 373 in [34].
